Test results: paper PMC5603367 (Journal of controlled release : official journal of the …, 2017)

T1: Recombinant human leptin receptor-Fc chimera (human, UniProt P48357 22-839)
T1 sequence (looked up): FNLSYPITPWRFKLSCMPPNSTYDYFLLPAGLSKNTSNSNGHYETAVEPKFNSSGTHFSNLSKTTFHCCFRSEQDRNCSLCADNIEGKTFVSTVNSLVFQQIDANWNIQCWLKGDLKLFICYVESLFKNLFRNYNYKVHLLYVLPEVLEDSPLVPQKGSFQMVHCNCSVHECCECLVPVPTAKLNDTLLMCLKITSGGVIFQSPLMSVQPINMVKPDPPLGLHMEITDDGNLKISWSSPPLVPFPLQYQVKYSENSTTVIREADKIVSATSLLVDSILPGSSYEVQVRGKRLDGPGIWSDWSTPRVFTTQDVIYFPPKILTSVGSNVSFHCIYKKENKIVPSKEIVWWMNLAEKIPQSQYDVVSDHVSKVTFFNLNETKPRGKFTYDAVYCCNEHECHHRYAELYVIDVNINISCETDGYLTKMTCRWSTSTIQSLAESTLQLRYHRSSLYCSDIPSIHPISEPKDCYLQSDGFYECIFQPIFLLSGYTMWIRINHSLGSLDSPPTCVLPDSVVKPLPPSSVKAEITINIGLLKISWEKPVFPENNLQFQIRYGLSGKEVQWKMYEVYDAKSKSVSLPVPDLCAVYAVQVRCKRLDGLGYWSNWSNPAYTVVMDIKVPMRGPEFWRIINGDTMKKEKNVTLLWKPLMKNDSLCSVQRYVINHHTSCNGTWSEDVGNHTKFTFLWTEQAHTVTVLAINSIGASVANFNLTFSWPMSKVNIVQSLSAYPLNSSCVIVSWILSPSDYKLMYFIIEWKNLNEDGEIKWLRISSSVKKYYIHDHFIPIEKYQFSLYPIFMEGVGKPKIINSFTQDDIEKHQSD


How the values were obtained:
[1] = biological target: leptin receptor (Mus musculus) (UniProt P48356); assay: SPR; conditions: cited from earlier work
[2] = biological target: T1, Recombinant human leptin receptor-Fc …; assay: SPR

Sequence of leptin receptor (Mus musculus) (P48356 22-839): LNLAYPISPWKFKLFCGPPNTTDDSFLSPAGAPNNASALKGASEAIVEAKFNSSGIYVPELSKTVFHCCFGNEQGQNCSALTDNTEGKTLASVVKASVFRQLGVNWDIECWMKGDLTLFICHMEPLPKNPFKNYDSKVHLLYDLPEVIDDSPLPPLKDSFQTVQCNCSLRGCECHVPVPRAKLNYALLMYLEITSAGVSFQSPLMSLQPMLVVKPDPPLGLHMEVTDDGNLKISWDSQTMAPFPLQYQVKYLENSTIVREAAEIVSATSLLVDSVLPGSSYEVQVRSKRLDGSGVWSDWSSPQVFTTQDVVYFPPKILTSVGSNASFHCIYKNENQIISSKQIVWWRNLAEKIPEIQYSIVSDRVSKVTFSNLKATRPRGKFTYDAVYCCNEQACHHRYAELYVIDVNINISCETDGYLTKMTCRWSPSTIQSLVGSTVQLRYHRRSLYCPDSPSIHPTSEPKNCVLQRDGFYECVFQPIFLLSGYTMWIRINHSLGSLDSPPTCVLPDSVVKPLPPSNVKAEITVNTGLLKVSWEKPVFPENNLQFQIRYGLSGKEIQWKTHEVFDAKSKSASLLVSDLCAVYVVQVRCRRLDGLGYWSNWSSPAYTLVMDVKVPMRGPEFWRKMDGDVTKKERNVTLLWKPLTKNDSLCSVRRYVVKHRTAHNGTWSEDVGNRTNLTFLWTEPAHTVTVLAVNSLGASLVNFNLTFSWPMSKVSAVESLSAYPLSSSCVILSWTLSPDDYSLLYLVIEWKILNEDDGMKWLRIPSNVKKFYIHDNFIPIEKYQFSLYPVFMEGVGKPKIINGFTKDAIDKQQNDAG

Molecule | Kd [1] | Kd [2]
leptin (from UniProt P41160) | 0.12 nM | 
Recombinant mouse leptin (ligand, UniProt P41160 22-167, looked up) VPIQKVQDDTKTLIKTIVTRINDISHTQSVSAKQRVTGLDFIPGLHPILSLSKMDQTLAVYQQVLTSLPSQNVLQIANDLENLRDLLHLLAFSKSCSLPQTSGLQKPESLDGVLEASLYSTEVVALSRLQGSLQDILQQLDVSPEC |  | 0.089 nM
Leptin N-terminal conjugate with poly(ethylene glycol) (LepNPEG5K), 1:1 conjugate (ligand, mouse, UniProt P41160 22-167, looked up, one chain of PEG (average molecular mass 5000 Da) on the N-terminal amine (reductive amination)) VPIQKVQDDTKTLIKTIVTRINDISHTQSVSAKQRVTGLDFIPGLHPILSLSKMDQTLAVYQQVLTSLPSQNVLQIANDLENLRDLLHLLAFSKSCSLPQTSGLQKPESLDGVLEASLYSTEVVALSRLQGSLQDILQQLDVSPEC |  | 0.28 nM
Leptin N-terminal conjugate with Pluronic P85 (LepNP85), 1:1 conjugate (ligand, mouse, UniProt P41160 22-167, looked up, one chain of Pluronic P85 on the N-terminal amine (reductive amination, secondary amine)) VPIQKVQDDTKTLIKTIVTRINDISHTQSVSAKQRVTGLDFIPGLHPILSLSKMDQTLAVYQQVLTSLPSQNVLQIANDLENLRDLLHLLAFSKSCSLPQTSGLQKPESLDGVLEASLYSTEVVALSRLQGSLQDILQQLDVSPEC |  | 0.2 nM
